These results are taken from patent publication US20140248291A1, “Modulation of Cellular Migration” (THE UAB RESEARCH FOUNDATION, priority 2011, published 2014).

Assay [1] deals with D54-MG cells. As to the kind of experiment: calcium imaging (Fura-2) of D54-MG cells after neuroligands. In kind it is cell-based, human. The procedure: D54-MG cells were plated on 35-mm glass bottom dishes (MatTek, Corp., Ashland, Mass.) at ˜100×10^3 per dish and cultured for 2 days. pTRIPZ transfected cells, after stable selection, were plated at a density of ˜20×10^3 per dish and treated with […] doxycycline for 4 to 5 days to allow for sufficient protein knockdown. All cells were loaded in serum-free culture medium for 45 min with the ratiometric Ca^2+ dye Fura-2-acetoxymethylester (5 μmol/L; TEFLABS, Austin, Tex.) reconstituted in 20% wiv pluronic acid in DMSO (Invitrogen, Carlsbad, Calif.). Cells were rinsed with serum-free medium and allowed to rest in 7% serum-containing medium for 45 min at 37° C. The glass-bottom dishes were placed in an environmental chamber mounted on an inverted microscope. Cells were allowed to equilibrate in the chamber for 15 min before calcium images were collected. Following equilibration, recordings were obtained with an Olympus Disk Spinning Unit (DSU) fluorescent imaging microscope where cells were alternately excited at 340 and 380 nm using an x-cite illumination light source. Emitted light was collected at >520 nm. Images were digitized online using Slidebook 4.2 software (Intelligent Imaging Innovations, Denver, Colo.), and 340:380 nm ratios were obtained every 15 seconds. Following a 5 minute baseline recording every 15 seconds, BK was applied to the cells and imaging continued every 15 seconds for 30 or 60 minutes. In a subset of experiments, BK antagonists, HOE-140 and Bradyzide were applied to the cells. These experiments were repeated at least three times and data were pooled for statistical analysis.
Glioma cells respond to environmental clues as they invade the brain. It has been previously shown that the exposure of glioma cells to certain neuroligands induces increase in intracellular calcium concentrations. In this series of experiments, we investigated Ca^2+-responses in cultured D54-MG glioma cells, after addition of acetylcholine (ACh), ATP or BK. Glioma cells were loaded with the ratiometric Ca^2+-dye FURA2-AM, and imaged over 30 min.

Assay [2] deals with D54-MG-GFP glioma cells. In words: Transwell migration assay. In kind it is cell-based, human. The settings on record: 5 h, neuroligand at bottom of filter. How it is done: The day before the experiment was performed, ˜70% confluent dishes of cells were prepared. Transwell migration Fluoroblock cell culture inserts (BD Biosciences, San Jose, Calif.) with 8 μm pores were coated overnight with Vitronectin (BD Biosciences, San Jose, Calif.) at a concentration of 5 μg/ml in PBS. The following day, inserts were blocked with 1% fatty acid-free bovine serum albumin for 1 h. Inserts were then washed two times in PBS, and 400 μl of Migration Assay Buffer (MAB, 0.1% fatty acid-free bovine serum albumin in serum-free media) was added to the bottom of each well. Cells were rinsed once in PBS and were lifted off the dish by the addition of 0.5 mm EGTA. Cells were rinsed twice by centrifugation and resuspended in MAB and counted. Forty thousand cells were plated on the top of each filter and allowed to adhere for 30 min before drug was added. When BK+/−antagonists was added to the filters, it was added only to the bottom of the filter for chemotaxis. For migration assay, D54-EGFP MG cells were allowed to migrate for 5 hours, washed with PBS, fixed with 4% paraformaldehyde 15 minutes at room temperature, washed thrice and counterstained with DAPI for 5 minutes at room temperature. Invasion assay was performed similarly. Matrigel cell cultured inserts (BD Biosciences, San Jose, Calif.) with 8 μm pores were pretreated Vitronectin and blocked as described above. […] The number of nuclei that migrated through pores was counted. All counts per treatment were averaged and SE values were calculated. […]
To investigate the hypothesis that BK promotes glioma migration in vitro, we used Transwell migration assay which conveniently permit examination of cell migration across a membrane barrier with 8 μm pores towards vitronectin, a chemo-attractant extracellular matrix protein. This frequently used assay allows a quantitative study of drug effects with regards to drugs acting as motogens or as chemo-attractants. […]

Assay [3] concerns the target B2R (Homo sapiens, UniProt P30411). The settings on record: cited from earlier work.
Assay [4] has as its target bradykinin-2-receptor (B2R), human, as expressed on glioma cells (D54-MG, D54-MG-GFP, U251-MG) (human) (UniProt P30411). As to the kind of experiment: cell-based or functional assay.

Sequence of bradykinin-2-receptor (B2R), human, as expressed on glioma cells (D54-MG, D54-MG-GFP, U251-MG) (human) (P30411 whole entry): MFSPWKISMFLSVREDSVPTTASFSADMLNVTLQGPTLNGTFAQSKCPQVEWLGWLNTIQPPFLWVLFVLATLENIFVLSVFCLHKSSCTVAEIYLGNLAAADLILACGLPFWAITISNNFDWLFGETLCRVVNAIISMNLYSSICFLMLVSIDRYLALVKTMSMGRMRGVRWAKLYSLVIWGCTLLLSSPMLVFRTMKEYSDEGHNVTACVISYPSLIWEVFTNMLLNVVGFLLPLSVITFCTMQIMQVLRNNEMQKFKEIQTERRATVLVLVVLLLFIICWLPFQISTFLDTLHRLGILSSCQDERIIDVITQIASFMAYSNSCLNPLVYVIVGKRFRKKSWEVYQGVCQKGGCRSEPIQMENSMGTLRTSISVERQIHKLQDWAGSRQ
Sequence of B2R (P30411 whole entry, species assumed): as the sequence (P30411 whole entry) above

As for `CC(=O)OCC[N+](C)(C)C` [ACh, acetylcholine], in assay [1] (50 μM ACh), the “average peak of Ca2+ response” value came to 0.23±0.04. Also, the “cells responded (sustained rise in intracellular calcium)” value in assay [1] (50 μM ACh, of 128 cells imaged) turned out to be 116.
Take `Nc1ncnc2c1ncn2[C@@H]1O[C@H](COP(=O)(O)OP(=O)(O)OP(=O)(O)O)[C@@H](O)[C@H]1O` [ATP]: in assay [1] (100 μM ATP), the “average peak of Ca2+ response” value was determined as 0.45±0.05 and the “cells responded / cells imaged” value is 87/146. Further, the “effect on D54-MG cell migration” value in assay [2] is “failed to alter glioma migration”.
`N=C(N)NCCC[C@@H](N)C(=O)N[C@@H](CCCNC(=N)N)C(=O)N1CCC[C@H]1C(=O)N1C[C@H](O)C[C@H]1C(=O)NCC(=O)N[C@@H](Cc1cccs1)C(=O)N[C@@H](CO)C(=O)N1Cc2ccccc2C[C@@H]1C(=O)N1[C@H](C(=O)N[C@@H](CCCNC(=N)N)C(=O)O)C[C@@H]2CCCC[C@@H]21` [Icatibant]: the B2R antagonism result in assay [3] was “potent antagonist”.
As to “HOE-140 (D-Arg-[Hyp3, Thi5, D-Tic7, Oic8]bradykinin) (peptide)”, in assay [4], the Ca2+-response of D54-MG cells to BK in the presence of HOE-140: average peak was determined as 0.15; the Ca2+-response of D54-MG cells to BK in the presence of HOE-140: cells responded was 22 of 162 cells; the directionality of D54-MG cells in a BK concentration gradient in the presence of HOE-140 was 8 of 15 cells; the rat brain slice invasion with BK and HOE-140: cells migrated up to 15 µm was 25.7%. In assay [4], the rat brain slice invasion with BK and HOE-140: cells migrated up to 20 µm turned out to be 15.4%; the rat brain slice invasion with BK and HOE-140: cells migrated up to 25 µm is 6.4%; the rat brain slice invasion with BK and HOE-140: cells remaining on the top of the slice turned out to be 47.5%; the rat brain slice invasion with HOE-140 alone: cells migrated up to 15 µm came out at 29.8%. Besides, in assay [4], the rat brain slice invasion with HOE-140 alone: cells migrated up to 20 µm was found to be 14.4%, the rat brain slice invasion with HOE-140 alone: cells migrated up to 25 µm stood at 3.5% and the rat brain slice invasion with HOE-140 alone: cells on top of the slice stood at 51.9%.
